Numbering of substitutions follows the chain as printed.
B1: AVR5b (Ile319Phe, Lys323Glu, Tyr342Cys, Gly390Ser, Ser476Arg) (receptor)
chain: MGSAGESVQFTLPENEVQLNAYVLQEPPKGETCTYDWQLITHPRDYSGEMEGKHSQILKLSKLTPGLYEFKVIVEGQNAHSEGYVNVTVKPEPRKNRPPIAIVSPQFQEISLPTTSTVIDGSQSTDDDKIVQYHWEELKGPLREEKISEDTAILKLSKLVPGNYTFRLTVVDSDGATNSTTANLTVNKAVDHHHHHH
B2: AVR4a (Ile319Phe, Tyr342Cys, Gly390Ser, Ser476Arg) (receptor)
chain: B1 chain with E14K
B3: AVR4d (Tyr342Cys, Gly390Ser, Ser476Arg, Asn487Asp) (receptor)
chain: B1 chain with F10I, E14K, N178D
B4: AVR3 (AAV-binding protein No. 75; Tyr342Cys, Gly390Ser, Ser476Arg) (receptor)
chain: B1 chain with F10I, E14K
B5: AVR5e (Tyr342Cys, Gly390Ser, Lys399Glu, Ser476Arg, Asn487Asp) (receptor)
chain: B1 chain with F10I, E14K, K90E, N178D
B6: wild-type AAV-binding protein (extracellular domains 1 and 2, PKD1 and PKD2, of KIAA0319L/AAVR, positions 312-500 of SEQ ID NO: 1, with His tag) (receptor)
chain: B1 chain with F10I, E14K, C33Y, S81G, R167S
notes: Expressed in E. coli; tested as extract, culture supernatant or purified protein; also called wild-type AVR; product of pET-AAVRD2
B7: AAV-binding protein No. 36 (Tyr355His, Asn387Ser) (receptor)
chain: B1 chain with F10I, E14K, C33Y, Y46H, N78S, S81G, R167S
B8: AAV-binding protein No. 45 (Asn329Asp, Tyr342His, Tyr355Cys) (receptor)
chain: B1 chain with F10I, E14K, N20D, C33H, Y46C, S81G, R167S
B9: AVR2 (AAV-binding protein No. 32, Tyr342Cys-Gly390Ser substitution product) (receptor)
chain: B1 chain with F10I, E14K, R167S
B10: AAV-binding protein No. 53 (Asp354Gly, Leu369Gln, Lys455Arg) (receptor)
chain: B1 chain with F10I, E14K, C33Y, D45G, L60Q, S81G, K146R, R167S
B11: AAV-binding protein No. 16 (Leu369Gln) (receptor)
chain: B1 chain with F10I, E14K, C33Y, L60Q, S81G, R167S
B12: AAV-binding protein No. 9 (Pro352Leu) (receptor)
chain: B1 chain with F10I, E14K, C33Y, P43L, S81G, R167S
B13: AAV-binding protein No. 43 (Leu321Pro, Tyr342Asn, Ala461Ser) (receptor)
chain: B1 chain with F10I, L12P, E14K, C33N, S81G, A152S, R167S
B14: AAV-binding protein No. 29 (Leu333Val, Tyr342Cys) (receptor)
chain: B1 chain with F10I, E14K, L24V, S81G, R167S
B15: AAV-binding protein No. 47 (Asn329Tyr, Tyr377Cys, Arg406Ser) (receptor)
chain: B1 chain with F10I, E14K, N20Y, C33Y, Y68C, S81G, R97S, R167S
B16: AAV-binding protein No. 49 (Tyr331Cys, Thr343Met, Tyr355Cys) (receptor)
chain: B1 chain with F10I, E14K, Y22C, C33Y, T34M, Y46C, S81G, R167S
B17: AAV-binding protein No. 30 (Glu340Gly, Tyr342Cys) (receptor)
chain: B1 chain with F10I, E14K, E31G, S81G, R167S
B18: AVR8g (Val317Asp, Tyr342Cys, Lys362Glu, Lys371Asn, Gly390Ser, Lys399Glu, Ser476Arg, Asn487Asp) (receptor)
chain: B1 chain with V8D, F10I, E14K, K53E, K62N, K90E, N178D
B19: AVR7a (AAV-binding protein No. 93; AVR5e + Asn324Asp, Lys362Glu) (receptor)
chain: B1 chain with F10I, E14K, N15D, K53E, K90E, N178D
B20: AVR8a (Val317Asp, Asn324Asp, Tyr342Cys, Lys362Glu, Gly390Ser, Lys399Glu, Ser476Arg, Asn487Asp) (receptor)
chain: B1 chain with V8D, F10I, E14K, N15D, K53E, K90E, N178D
B21: AVR3HC (protein having an immobilization tag at the C-terminus of AVR3) (receptor)
chain: MGSAGESVQITLPKNEVQLNAYVLQEPPKGETCTYDWQLITHPRDYSGEMEGKHSQILKLSKLTPGLYEFKVIVEGQNAHSEGYVNVTVKPEPRKNRPPIAIVSPQFQEISLPTTSTVIDGSQSTDDDKIVQYHWEELKGPLREEKISEDTAILKLSKLVPGNYTFRLTVVDSDGATNSTTANLTVNKAVDHHHHHHCRNDTCG
notes: Immobilised on gel; also called AVR3HC-immobilized gel
B22: AVR8gHC (protein having an immobilization tag at the C-terminus of AVR8g) (receptor)
chain: B21 chain with V8D, K53E, K62N, K90E, N178D
notes: Immobilised on gel; also called AVR8gHC-immobilized gel

Molecular target: T1, VLP2 (virus-like particles of AAV2) (AAV2, UniProt P03135 1-735; P03135 1-598; P03135 1-533)
T1 construct: Empty AAV2 capsid; background says about 60 protein molecules, VP1:VP2:VP3 = 1:1:10; Immobilised on the ELISA plate
T1 sequence (P03135 whole entry, chain 1 of 3): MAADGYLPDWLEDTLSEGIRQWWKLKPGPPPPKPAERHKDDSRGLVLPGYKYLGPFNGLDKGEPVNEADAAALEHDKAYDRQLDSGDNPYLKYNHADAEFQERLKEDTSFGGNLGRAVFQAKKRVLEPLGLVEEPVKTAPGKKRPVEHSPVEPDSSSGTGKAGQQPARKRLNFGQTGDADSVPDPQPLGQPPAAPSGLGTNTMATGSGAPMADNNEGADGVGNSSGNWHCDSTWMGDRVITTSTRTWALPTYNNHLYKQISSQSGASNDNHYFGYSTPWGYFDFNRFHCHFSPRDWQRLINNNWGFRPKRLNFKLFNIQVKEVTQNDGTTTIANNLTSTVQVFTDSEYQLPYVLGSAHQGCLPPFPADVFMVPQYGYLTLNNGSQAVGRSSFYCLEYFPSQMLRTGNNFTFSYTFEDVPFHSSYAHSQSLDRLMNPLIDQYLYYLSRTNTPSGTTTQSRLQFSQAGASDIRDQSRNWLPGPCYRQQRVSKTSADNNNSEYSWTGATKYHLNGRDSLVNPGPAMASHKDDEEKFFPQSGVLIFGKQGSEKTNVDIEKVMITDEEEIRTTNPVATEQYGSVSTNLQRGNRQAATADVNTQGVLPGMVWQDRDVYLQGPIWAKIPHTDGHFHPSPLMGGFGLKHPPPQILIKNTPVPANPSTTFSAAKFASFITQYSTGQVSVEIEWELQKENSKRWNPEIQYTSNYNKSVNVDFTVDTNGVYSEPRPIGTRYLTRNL
T1 sequence (P03135 139-735, tags left off, chain 2 of 3): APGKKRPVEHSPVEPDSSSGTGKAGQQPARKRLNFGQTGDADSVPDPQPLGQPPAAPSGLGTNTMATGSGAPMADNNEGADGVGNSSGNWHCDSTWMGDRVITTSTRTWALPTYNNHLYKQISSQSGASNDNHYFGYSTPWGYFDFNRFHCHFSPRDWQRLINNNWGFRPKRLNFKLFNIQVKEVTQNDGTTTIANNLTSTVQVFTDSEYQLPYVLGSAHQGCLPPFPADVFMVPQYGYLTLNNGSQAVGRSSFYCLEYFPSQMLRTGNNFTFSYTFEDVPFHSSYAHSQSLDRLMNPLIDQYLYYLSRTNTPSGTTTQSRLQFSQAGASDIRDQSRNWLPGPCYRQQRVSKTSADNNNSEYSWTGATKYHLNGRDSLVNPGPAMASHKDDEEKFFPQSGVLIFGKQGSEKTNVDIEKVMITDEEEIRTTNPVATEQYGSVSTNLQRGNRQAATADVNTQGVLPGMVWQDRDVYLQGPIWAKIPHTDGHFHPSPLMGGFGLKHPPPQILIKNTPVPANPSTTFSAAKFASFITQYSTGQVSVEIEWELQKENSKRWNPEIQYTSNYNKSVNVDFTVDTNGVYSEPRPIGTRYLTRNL
T1 sequence (P03135 203-735, chain 3 of 3): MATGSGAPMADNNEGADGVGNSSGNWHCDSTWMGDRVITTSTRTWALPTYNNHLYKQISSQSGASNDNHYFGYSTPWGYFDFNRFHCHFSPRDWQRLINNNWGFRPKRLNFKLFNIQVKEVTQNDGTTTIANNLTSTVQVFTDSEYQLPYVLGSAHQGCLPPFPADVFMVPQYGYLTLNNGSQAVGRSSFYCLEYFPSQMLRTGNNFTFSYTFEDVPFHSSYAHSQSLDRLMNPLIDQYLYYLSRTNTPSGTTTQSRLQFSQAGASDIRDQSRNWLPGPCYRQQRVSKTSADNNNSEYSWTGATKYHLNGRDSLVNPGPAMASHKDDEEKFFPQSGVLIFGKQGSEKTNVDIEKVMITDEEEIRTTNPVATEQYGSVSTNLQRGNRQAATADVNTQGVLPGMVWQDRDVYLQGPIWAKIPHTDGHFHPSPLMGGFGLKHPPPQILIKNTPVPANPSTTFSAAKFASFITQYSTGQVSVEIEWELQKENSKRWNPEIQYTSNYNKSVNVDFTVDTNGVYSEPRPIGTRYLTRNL
Experiment: ELISA on VLP2; A450 after pH 3.0 60.1°C 15 min / 25°C

| Binder | Residual activity after heat treatment [%] |
| --- | --- |
| B1 | 43 |
| B2 | 16 |
| B3 | 35 |
| B4 | 3 |
| B5 | 56 |

Molecular target: T1, VLP2 (virus-like particles of AAV2)
Experiment: ELISA on VLP2; A450 after pH 2.5 30°C 2 h / untreated

| Binder | Residual activity [%] |
| --- | --- |
| B6 | 7.9 |
| B7 | 16.1 |
| B8 | 64.4 |
| B9 | 70.7 |
| B10 | 18.2 |
| B11 | 17.3 |
| B12 | 17.6 |
| B13 | 41.4 |
| B14 | 52.2 |
| B15 | 43.6 |
| B16 | 52.8 |
| B17 | 70.5 |

Molecular target: T1, VLP2 (virus-like particles of AAV2)
Experiment: ELISA on VLP2; binding after 43°C 15 min / untreated

| Binder | Residual activity [%] |
| --- | --- |
| B6 | 43.4 |
| B7 | 86.6 |
| B8 | 97.2 |
| B9 | 97.6 |
| B10 | 90.5 |
| B11 | 92.8 |
| B12 | 71.9 |
| B13 | 84.1 |
| B14 | 91.8 |
| B15 | 92.7 |
| B16 | 97.7 |
| B17 | 91.3 |

Molecular target: T1, VLP2 (virus-like particles of AAV2)
Experiment: ELISA on VLP2; A450 after pH 3.0 51.5°C 15 min / 25°C

| Binder | Residual activity after heat treatment [%] |
| --- | --- |
| B1 | 87 |
| B2 | 57 |
| B3 | 66 |
| B4 | 21 |
| B5 | 77 |

Molecular target: T1, VLP2 (virus-like particles of AAV2)
Experiment: ELISA on VLP2; A450 after pH 3.0 80.8°C 15 min / 25°C

| Binder | Residual activity after heat treatment [%] |
| --- | --- |
| B18 | 67 |
| B19 | 57 |
| B20 | 66 |

Molecular target: T1, VLP2 (virus-like particles of AAV2)
Experiment: ELISA on VLP2; binding after pH 3.0 51.1°C 15 min / untreated;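 also: binding of the heat-treated AAV-binding protein to VLP2, expressed as a percentage of the binding of the same protein without heating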

| Binder | Residual activity [%] |
| --- | --- |
| B9 | 25.5 |
| B4 | 96.3 |

Molecular target: T1, VLP2 (virus-like particles of AAV2)
Experiment: ELISA on VLP2; A450 after pH 2.5 30°C 24 h / untreated

| Binder | Residual activity [%] |
| --- | --- |
| B6 | 5.1 |
| B7 | 8.9 |
| B8 | 47.6 |
| B9 | 64.7 |
| B10 | 13.2 |
| B11 | 10 |
| B12 | 5.6 |
| B13 | 28.3 |
| B14 | 40.2 |
| B15 | 34.8 |
| B16 | 16.6 |
| B17 | 56.1 |

Molecular target: T1, VLP2 (virus-like particles of AAV2)
Experiment: ELISA on VLP2; binding after pH 10.0 41.2°C 15 min / untreated

| Binder | Residual activity [%] |
| --- | --- |
| B18 | 23.1 |

Molecular target: T2, AAV2-EGFP (AAV vector of serotype 2 carrying an EGFP gene) (AAV2, UniProt P03135 1-735; P03135 1-598; P03135 1-533)
T2 construct: Genome-containing AAV2 particle; amounts counted as vector genomes (VG) by qPCR
T2 sequence (P03135 whole entry, chain 1 of 3, the tested form may be a part): as the sequence (P03135 whole entry, chain 1 of 3) above
T2 sequence (P03135 139-735, tags left off, chain 2 of 3): as the sequence (P03135 139-735, tags left off, chain 2 of 3) above
T2 sequence (P03135 203-735, chain 3 of 3): as the sequence (P03135 203-735, chain 3 of 3) above
Experiment: mini column of immobilised protein loaded to breakthrough; AAV2-EGFP recovered by elution at pH 3.0, qPCR

| Binder | amount of AAV2-EGFP bound per 1 mL of protein-immobilized gel |
| --- | --- |
| B6 | 8.6e+09 VG/mL (gel) |
| B21 | 2.8e+12 VG/mL (gel) |
| B22 | 1.2e+13 VG/mL (gel) |

Molecular target: T1, VLP2 (virus-like particles of AAV2)
Experiment: ELISA on VLP2; A450 after 66.1°C 15 min / untreated

| Binder | Residual activity [%] |
| --- | --- |
| B6 | 9.6 |
| B7 | 51 |
| B8 | 46.7 |
| B9 | 70.5 |
| B10 | 23.5 |
| B11 | 20.3 |
| B12 | 46.5 |
| B13 | 56.3 |
| B14 | 54.5 |
| B15 | 58.7 |
| B16 | 57.3 |
| B17 | 52.4 |

Molecular target: T1, VLP2 (virus-like particles of AAV2)
Experiment: ELISA on VLP2; A450 after pH 3.0 66.1°C 15 min / 25°C

| Binder | Residual activity after heat treatment [%] |
| --- | --- |
| B1 | 23 |
| B2 | 8 |
| B3 | 18 |
| B4 | 2 |
| B5 | 43 |

Molecular target: T1, VLP2 (virus-like particles of AAV2)
Experiment: ELISA on VLP2; binding after pH 3.0 61.0°C 15 min / untreated

| Binder | Residual activity [%] |
| --- | --- |
| B5 | 25.5 |
| B19 | 50.7 |

Molecular target: T1, VLP2 (virus-like particles of AAV2)
Experiment: ELISA on VLP2; A450 after 50.3°C 15 min / untreated

| Binder | Residual activity [%] |
| --- | --- |
| B6 | 16.1 |
| B7 | 74.5 |
| B8 | 66 |
| B9 | 76 |
| B10 | 29.8 |
| B11 | 32 |
| B12 | 49 |
| B13 | 55.6 |
| B14 | 66.7 |
| B15 | 64.5 |
| B16 | 77.3 |
| B17 | 65.4 |

Molecular target: T1, VLP2 (virus-like particles of AAV2)
Experiment: ELISA on VLP2; A450 after pH 3.0 89.8°C 15 min / 25°C

| Binder | Residual activity after heat treatment [%] |
| --- | --- |
| B18 | 55 |
| B19 | 54 |
| B20 | 52 |

From patent publication US20220402995A1 (TOSOH, published 2022)
